# Data taken from PMC6388921, “An alkaline active feruloyl-CoA synthetase from soil metagenome as a potential key enzyme for lignin valorization strategies” (PLoS ONE, 2019).
# B1: feruloyl-CoA synthetase FCS1 (enzyme, UniProt A0A2P1BT06 1-707, looked up)
# chain: MGERRFSNQQIDRLLRPKSVAVIGASDRKGALGATLLNNLVQYEFSGDIYPVNPKRDELLGLKVYHEVAELPEGIDCAVLAIPRPFVIDTVRQLAQRGCGAVVIYSAGFSEAGEEGMKDQLELAAIAAEYGMVIEGPNCLGCTNYVERVPLTFVETNMQTPPKGTRAVGIASQSGALAAVLATALHPRGLYVSSSVSTGNEAASGVEDYVEWLVDDEDTHVIAMYVESLRRPKAFIAAARRAHAAGKPIVMLHPGKSNKAQESAATHTGAMAGDYALMKTKLAREGVIFADTLEELADITEIALRCRALPGANMAVLGESGALRGLAFDIAEDIGLDLIHLDDDNSPALRAILPDFVPVSNPTDITALGLSEPEIYTKVLTALLEDERIGSVVASIIQSDPITSGIKFPHIIKVLDGGTFAKPLVFAGVDEGATVPKEYIDGLRKVGIPWFPSTERAYRAIARLADLSKRDLADNSGDPIVVPGLDAVSGVVPEYKAKELLRPLGIAFPPSQFAANAEAAAAAARAIGYPVVMKAQAAALGHKSDAGGVILNLKTDDEVRDAFARIYGNVEAYDRSIALDGVLIEKMGKMGTEMIVGAKNDPQWGPVVLAGFGGVTAEILKDVKLFTPEMDAAAVQRGLLELKQAPILKGYRGAPALDVAALAELIVQIGRVMAGNPSIREIDLNPVIIHPAGEGVAALDALMLVER
# notes: feruloyl-CoA synthetase FCS1 from the metagenome of a lignin-degrading microbial consortium from sugarcane plantation soil; GenBank MG214406; codon-optimised, synthesised gene; predicted molecular mass 74.9 kDa; No tag cleavage is described
# Target: the molecule itself
# Test: dynamic light scattering; FCS1 at 1 mg/mL in 20 mM Tris-HCl pH 7; hydrodynamic radius converted to mass assuming a spherical molecule
protein,measurement,value
B1,stoichiometry N,2
